Measurements: the supplement of paper PMC7125110
± gives the standard error. For some of these results: Fewer inactive variants are shown than the library holds.

B1: glmS ribozyme (parent)
chain: AUAAAAGCGCCAGAACUACAGAAAUGUAGUUGACGAGGAGGAGGUUUAUCGAAUUUUCGGCGGAUGCCUCCAAA

Tests used:
Conditions in all cases: with glucosamine-6-phosphate
glucosamine-6-phosphate [1] = variants of: B1; assay: kcat; higher = faster cleavage; RNA array
In short: (§1)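 Tracking of barcoded ribozyme variants used a hybridised Cy3 probe at 37 °C, after in situ transcription by E. coli RNA polymerase on sequenced MiSeq chips. The flowed solution held 40 μM to 10 mM glucosamine-6-phosphate in HEPES/KCl/Mg(OAc)2 buffer, and imaging ran over ~14 h. kobs was taken from exponential decay fits of normalised per-tile medians, and kcat and KM from weighted Michaelis–Menten fits.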

glucosamine-6-phosphate [2] = variants of: B1; assay: self-cleavage kobs at 40 uM GlcN6P; higher = faster cleavage; RNA array
In short: as §1

glucosamine-6-phosphate [3] = variants of: B1; assay: self-cleavage kobs at 160 uM GlcN6P; higher = faster cleavage; RNA array
In short: as §1

glucosamine-6-phosphate [4] = variants of: B1; assay: self-cleavage kobs at 640 uM GlcN6P; higher = faster cleavage; RNA array
In short: as §1

glucosamine-6-phosphate [5] = variants of: B1; assay: self-cleavage kobs at 2500 uM GlcN6P; higher = faster cleavage; RNA array
In short: as §1

glucosamine-6-phosphate [6] = variants of: B1; assay: self-cleavage kobs at 10000 uM GlcN6P; higher = faster cleavage; RNA array
In short: as §1

glucosamine-6-phosphate [7] = variants of: B1; assay: KM; higher = weaker cofactor use; RNA array
In short: as §1

| Variant | kcat (glucosamine-6-phosphate [1]) [s⁻¹] | self-cleavage kobs at 40 uM GlcN6P (glucosamine-6-phosphate [2]) [s⁻¹] | self-cleavage kobs at 160 uM GlcN6P (glucosamine-6-phosphate [3]) [s⁻¹] | self-cleavage kobs at 640 uM GlcN6P (glucosamine-6-phosphate [4]) [s⁻¹] | self-cleavage kobs at 2500 uM GlcN6P (glucosamine-6-phosphate [5]) [s⁻¹] | self-cleavage kobs at 10000 uM GlcN6P (glucosamine-6-phosphate [6]) [s⁻¹] | KM (glucosamine-6-phosphate [7]) [µM] |
| --- | --- | --- | --- | --- | --- | --- | --- |
| C10G C11G | < 1e-05 | < 1e-05 | < 1e-05 |  |  |  |  |
| G13A C67G | 2.66e-05 ± 2.6e-06 | < 1e-05 |  | 2.71e-05 ± 1.2e-05 | 3.63e-05 ± 1.7e-05 | 2.48e-05 ± 6.5e-06 |  |
| G29C G38A | < 1e-05 | < 1e-05 |  |  |  | < 1e-05 |  |
| G32U A53U | 0.000907 ± 0.00012 |  | 1.91e-05 ± 5.9e-06 | 0.000111 ± 6.5e-06 | 0.000361 ± 2.5e-05 | 0.000603 ± 3.5e-05 | 4580 ± 950 |
| G29C A53G | 0.00235 ± 0.00053 | 4.79e-05 ± 7.8e-06 | 0.000154 ± 2.3e-05 | 0.000398 ± 5.6e-05 | 0.000948 ± 0.00014 | 0.00209 ± 0.00021 | 2630 ± 900 |
| A12C C61A | < 1e-05 |  |  |  |  | < 1e-05 |  |
| U54G U56A G63C | < 1e-05 | < 1e-05 | < 1e-05 |  |  |  |  |
| G44U C68U | 2.53e-05 ± 4.3e-07 | < 1e-05 |  |  |  | 2.31e-05 ± 7.7e-06 | 915 ± 100 |
| A12C A52U | 0.000397 ± 5.1e-05 |  |  | 8.66e-05 ± 8.4e-06 | 0.000188 ± 1.7e-05 | 0.000329 ± 3.4e-05 | 2490 ± 570 |
| A14G G43U U46G | 3.09e-05 ± 3.5e-06 | < 1e-05 |  |  |  |  | 1610 ± 590 |
| U30C U54A | 0.000514 ± 7.7e-05 |  |  | 8.25e-05 ± 2.1e-05 | 0.000182 ± 5.3e-05 | 0.000378 ± 5.6e-05 | 3790 ± 1100 |
| C50A | 2.67e-05 ± 8.3e-07 |  |  | 1.25e-05 ± 3.1e-06 | 2.31e-05 ± 2.1e-06 | 2.49e-05 ± 1.3e-06 | 579 ± 130 |
| A33U U57A | < 1e-05 |  |  |  |  |  |  |
| G13C G29U | 0.000169 ± 1.6e-05 |  |  | 3.22e-05 ± 1.3e-05 | 6.58e-05 ± 8.4e-06 | 0.000125 ± 1.6e-05 | 3700 ± 710 |
| U47A C71G | 0.000753 ± 9.5e-05 | 2.61e-05 ± 8.5e-06 | 0.000142 ± 4.2e-05 | 0.000227 ± 5.2e-05 | 0.00055 ± 0.00011 | 0.000682 ± 9.3e-05 | 1130 ± 300 |
| U31C A52U G63U U69G | 1.91e-05 ± 1.4e-06 |  |  |  |  |  |  |
| U46C C70G | 0.000447 ± 0.00013 | 6.28e-05 ± 2.3e-05 | 3.81e-05 ± 1.5e-05 | 0.000178 ± 2.9e-05 | 0.000453 ± 6.5e-05 | 0.000346 ± 5.5e-05 |  |
| A39G U56A U57G G60U C67U C70U | 1.31e-05 ± 5.3e-06 |  |  |  |  |  |  |

| Variant | kcat (glucosamine-6-phosphate [1]) [s⁻¹] | self-cleavage kobs at 40 uM GlcN6P (glucosamine-6-phosphate [2]) [s⁻¹] | self-cleavage kobs at 160 uM GlcN6P (glucosamine-6-phosphate [3]) [s⁻¹] | self-cleavage kobs at 640 uM GlcN6P (glucosamine-6-phosphate [4]) [s⁻¹] | self-cleavage kobs at 2500 uM GlcN6P (glucosamine-6-phosphate [5]) [s⁻¹] | self-cleavage kobs at 10000 uM GlcN6P (glucosamine-6-phosphate [6]) [s⁻¹] | KM (glucosamine-6-phosphate [7]) [µM] |
| --- | --- | --- | --- | --- | --- | --- | --- |
| C58U | 0.00011 ± 3.8e-06 | < 1e-05 |  | 1.66e-05 ± 1.8e-06 | 3.96e-05 ± 1.2e-06 | 7.7e-05 ± 1.3e-06 | 4350 ± 360 |
| C11A G60A | < 1e-05 |  |  |  |  |  |  |
| A6G A15G | 0.000647 ± 5.3e-05 |  | 3.49e-05 ± 1.1e-05 | 0.000131 ± 1.7e-05 | 0.000324 ± 4.3e-05 | 0.000514 ± 5.4e-05 | 2540 ± 370 |
| A12C U49C | < 1e-05 |  |  |  |  | < 1e-05 |  |
| C50A C71A | 1.53e-05 ± 3.9e-06 |  |  |  |  |  |  |
| A6G A53U | 0.000303 ± 3.8e-05 |  |  | 6.78e-05 ± 1.6e-05 | 0.000191 ± 2.7e-05 | 0.000241 ± 3.5e-05 | 1940 ± 560 |
| U55C U57G | 3.92e-05 ± 2.9e-06 | < 1e-05 | < 1e-05 |  | 2.98e-05 ± 1.5e-05 |  | 840 ± 320 |
| G35U G37A G60U | < 1e-05 |  |  |  | < 1e-05 |  |  |
| A15C U46C | 0.000304 ± 5.3e-05 |  |  | 0.000119 ± 1.9e-05 | 0.000176 ± 2.5e-05 | 0.000295 ± 4.8e-05 | 1330 ± 520 |
| C50G G59C | 4e-05 ± 1.5e-05 |  | 6.56e-05 ± 3.2e-05 |  | 5.58e-05 ± 2.3e-05 |  |  |
| A52U U54A | 0.000204 ± 9.2e-06 |  |  | 5.55e-05 ± 8.3e-06 | 0.000132 ± 2.1e-05 | 0.000172 ± 1.8e-05 | 1670 ± 180 |
| A52G U55G | 0.00167 ± 0.00021 |  | 8.73e-05 ± 8.7e-06 | 0.000252 ± 2.5e-05 | 0.000786 ± 7.4e-05 | 0.00124 ± 0.00013 | 3170 ± 560 |
| G32A A42G A64G | 0.00178 ± 0.00063 | 3.12e-05 ± 1.5e-05 |  | 0.000716 ± 0.00024 |  | 0.0016 ± 0.00039 |  |
| A14G A52U | 0.000706 ± 1.3e-05 |  |  | 9.98e-05 ± 1.6e-05 | 0.000274 ± 5.2e-05 | 0.000509 ± 6.5e-05 | 3890 ± 120 |
| U57C C68A | 1.48e-05 ± 1.3e-06 |  |  |  |  | < 1e-05 | 184 ± 90 |
| U54G C58A | 0.000823 ± 5.9e-05 |  |  | 0.00015 ± 2.9e-05 | 0.000361 ± 0.00012 | 0.000646 ± 0.00011 | 2870 ± 360 |
| G32U U54C | 0.000958 ± 0.00028 |  |  | 0.000126 ± 1.5e-05 | 0.000272 ± 3.3e-05 | 0.000665 ± 8.6e-05 | 5300 ± 2300 |
| A14U G66C | 0.000139 ± 1.3e-05 |  |  |  | 4.36e-05 ± 8e-06 | 9.18e-05 ± 1e-05 | 5220 ± 1100 |
